Data from patent publication EP4491629A1 (Université de Lorraine, dated 2025).

Target: the molecule itself
Test: size exclusion chromatography (Superdex 75); self-association

Row | Protein | binding result
1 | C131E mutant of Cricetulus griseus galectin-1 (other, also called Gal1 C131E; Gal1 mutant C131E) ACGLVASNLNLKPGECLKVRGEVAPDAKSFVLNLGKDSNNLCLHFNPRFNAHGDANTIVCNSKDNGAWGTEHREPAFPFQPGSTVEVCITFDQADLTIKLPDGHEFKFPNRLNMEAINYMAADGDFKIKEVAFEELSSGVDLGTENLYFQS | no binding
2 | Cricetulus griseus galectin-1 (wild-type), produced from the pCarONE vector (other, Lectin; recombinant from E. coli; The entries are about self-association (homodimer, printed as 2x16.6 kDa); also called Gal1 wild-type; Gal1; not shown: spacer arm and TEV protease cleavage site encoded by pCarONE) ACGLVASNLNLKPGECLKVRGEVAPDAKSFVLNLGKDSNNLCLHFNPRFNAHGDANTIVCNSKDNGAWGTEHREPAFPFQPGSTVEVCITFDQADLTIKLPDGHEFKFPNRLNMEAINYMAADGDFKIKCVAFE | binds
3 | E16K mutant of Cricetulus griseus galectin-1 (other, Recombinant from E. coli; tested for self-association by size exclusion chromatography; also called Gal1 E16K; Gal1 mutant E16K; not shown: spacer arm and TEV protease cleavage site encoded by pCarONEE16K) ACGLVASNLNLKPGKCLKVRGEVAPDAKSFVLNLGKDSNNLCLHFNPRFNAHGDANTIVCNSKDNGAWGTEHREPAFPFQPGSTVEVCITFDQADLTIKLPDGHEFKFPNRLNMEAINYMAADGDFKIKCVAFE | binds
